# From US20240270846A1 (published 2024)
# B1: CE115HA000 Y58D one-arm antibody (antibody, human IgG1, kappa, L234A L235A, N297A, name in Kabat numbering)
# heavy: QVQLVESGGGVVQPGRSLRLSCAASGFTFSNAWMHWVRQAPGKGLEWVAQIKAKSNNYATDYAESVKGRFTISRDDSKNSLYLQMNSLKTEDTAVYYCRYVHYGAYYGVDAWGQGTTVTVSSASTKGPSVFPLAPSSKSTSGGTAALGCLVKDYFPEPVTVSWNSGALTSGVHTFPAVLQSSGLYSLSSVVTVPSSSLGTQTYICNVNHKPSNTKVDKKVEPKSCDKTHTCPPCPAPEAAGGPSVFLFPPKPKDTLMISRTPEVTCVVVDVSHEDPEVKFNWYVDGVEVHNAKTKPREEQYASTYRVVSVLTVLHQDWLNGKEYKCKVSNKALPAPIEKTISKAKGQPREPQVYTLPPSRCELTKNQVSLSCAVKGFYPSDIAVEWESNGQPENNYKTTPPVLDSDGSFFLVSKLTVDKSRWQQGNVFSCSVMHEALHNHYTQKSLSLSPDYKDDDDK
# chain: EPKSSDKTHTCPPCPAPELLGGPSVFLFPPKPKDTLMISRTPEVTCVVVDVSHEDPEVKFNWYVDGVEVHNAKTKPREEQYNSTYRVVSVLTVLHQDWLNGKEYKCKVSNKALPAPIEKTISKAKGQPREPQVCTLPPSRDELTKNQVSLWCLVKGFYPSDIAVEWESNGQPENNYKTTPPVLDSDGSFFLYSKLTVDKSRWQQGNVFSCSVMHEALHNRYTQKSLSLSP
# light: DIVMTQSPLSLPVTPGEPASISCRSSQSLVHSNRNTYLHWYQQKPGQAPRLLIYKVSNRFSGVPDRFSGSGSGTDFTLKISRVEAEDVGVYYCGQGTQVPYTFGQGTKLEIKRTVAAPSVFIFPPSDEQLKSGTASVVCLLNNFYPREAKVQWKVDNALQSGNSQESVTEQDSKDSTYSLSSTLTLSKADYEKHKVYACEVTHQGLSSPVTKSFNRGEC
# notes: one-arm antibody
# B2: CE115HA000 D101A one-arm antibody (antibody, human IgG1, kappa, L234A L235A, N297A, name in Kabat numbering)
# heavy: QVQLVESGGGVVQPGRSLRLSCAASGFTFSNAWMHWVRQAPGKGLEWVAQIKAKSNNYATYYAESVKGRFTISRDDSKNSLYLQMNSLKTEDTAVYYCRYVHYGAYYGVAAWGQGTTVTVSSASTKGPSVFPLAPSSKSTSGGTAALGCLVKDYFPEPVTVSWNSGALTSGVHTFPAVLQSSGLYSLSSVVTVPSSSLGTQTYICNVNHKPSNTKVDKKVEPKSCDKTHTCPPCPAPEAAGGPSVFLFPPKPKDTLMISRTPEVTCVVVDVSHEDPEVKFNWYVDGVEVHNAKTKPREEQYASTYRVVSVLTVLHQDWLNGKEYKCKVSNKALPAPIEKTISKAKGQPREPQVYTLPPSRCELTKNQVSLSCAVKGFYPSDIAVEWESNGQPENNYKTTPPVLDSDGSFFLVSKLTVDKSRWQQGNVFSCSVMHEALHNHYTQKSLSLSPDYKDDDDK
# chain: EPKSSDKTHTCPPCPAPELLGGPSVFLFPPKPKDTLMISRTPEVTCVVVDVSHEDPEVKFNWYVDGVEVHNAKTKPREEQYNSTYRVVSVLTVLHQDWLNGKEYKCKVSNKALPAPIEKTISKAKGQPREPQVCTLPPSRDELTKNQVSLWCLVKGFYPSDIAVEWESNGQPENNYKTTPPVLDSDGSFFLYSKLTVDKSRWQQGNVFSCSVMHEALHNRYTQKSLSLSP
# light: DIVMTQSPLSLPVTPGEPASISCRSSQSLVHSNRNTYLHWYQQKPGQAPRLLIYKVSNRFSGVPDRFSGSGSGTDFTLKISRVEAEDVGVYYCGQGTQVPYTFGQGTKLEIKRTVAAPSVFIFPPSDEQLKSGTASVVCLLNNFYPREAKVQWKVDNALQSGNSQESVTEQDSKDSTYSLSSTLTLSKADYEKHKVYACEVTHQGLSSPVTKSFNRGEC
# notes: one-arm antibody (one Fab)
# B3: CE115HA000 Y59E one-arm antibody (antibody, human IgG1, kappa, L234A L235A, N297A, name in Kabat numbering)
# heavy: QVQLVESGGGVVQPGRSLRLSCAASGFTFSNAWMHWVRQAPGKGLEWVAQIKAKSNNYATYEAESVKGRFTISRDDSKNSLYLQMNSLKTEDTAVYYCRYVHYGAYYGVDAWGQGTTVTVSSASTKGPSVFPLAPSSKSTSGGTAALGCLVKDYFPEPVTVSWNSGALTSGVHTFPAVLQSSGLYSLSSVVTVPSSSLGTQTYICNVNHKPSNTKVDKKVEPKSCDKTHTCPPCPAPEAAGGPSVFLFPPKPKDTLMISRTPEVTCVVVDVSHEDPEVKFNWYVDGVEVHNAKTKPREEQYASTYRVVSVLTVLHQDWLNGKEYKCKVSNKALPAPIEKTISKAKGQPREPQVYTLPPSRCELTKNQVSLSCAVKGFYPSDIAVEWESNGQPENNYKTTPPVLDSDGSFFLVSKLTVDKSRWQQGNVFSCSVMHEALHNHYTQKSLSLSPDYKDDDDK
# chain: EPKSSDKTHTCPPCPAPELLGGPSVFLFPPKPKDTLMISRTPEVTCVVVDVSHEDPEVKFNWYVDGVEVHNAKTKPREEQYNSTYRVVSVLTVLHQDWLNGKEYKCKVSNKALPAPIEKTISKAKGQPREPQVCTLPPSRDELTKNQVSLWCLVKGFYPSDIAVEWESNGQPENNYKTTPPVLDSDGSFFLYSKLTVDKSRWQQGNVFSCSVMHEALHNRYTQKSLSLSP
# light: DIVMTQSPLSLPVTPGEPASISCRSSQSLVHSNRNTYLHWYQQKPGQAPRLLIYKVSNRFSGVPDRFSGSGSGTDFTLKISRVEAEDVGVYYCGQGTQVPYTFGQGTKLEIKRTVAAPSVFIFPPSDEQLKSGTASVVCLLNNFYPREAKVQWKVDNALQSGNSQESVTEQDSKDSTYSLSSTLTLSKADYEKHKVYACEVTHQGLSSPVTKSFNRGEC
# notes: one-arm antibody
# B4: CE115HA000 Y58K one-arm antibody (antibody, human IgG1, kappa, L234A L235A, N297A, name in Kabat numbering)
# heavy: QVQLVESGGGVVQPGRSLRLSCAASGFTFSNAWMHWVRQAPGKGLEWVAQIKAKSNNYATKYAESVKGRFTISRDDSKNSLYLQMNSLKTEDTAVYYCRYVHYGAYYGVDAWGQGTTVTVSSASTKGPSVFPLAPSSKSTSGGTAALGCLVKDYFPEPVTVSWNSGALTSGVHTFPAVLQSSGLYSLSSVVTVPSSSLGTQTYICNVNHKPSNTKVDKKVEPKSCDKTHTCPPCPAPEAAGGPSVFLFPPKPKDTLMISRTPEVTCVVVDVSHEDPEVKFNWYVDGVEVHNAKTKPREEQYASTYRVVSVLTVLHQDWLNGKEYKCKVSNKALPAPIEKTISKAKGQPREPQVYTLPPSRCELTKNQVSLSCAVKGFYPSDIAVEWESNGQPENNYKTTPPVLDSDGSFFLVSKLTVDKSRWQQGNVFSCSVMHEALHNHYTQKSLSLSPDYKDDDDK
# chain: EPKSSDKTHTCPPCPAPELLGGPSVFLFPPKPKDTLMISRTPEVTCVVVDVSHEDPEVKFNWYVDGVEVHNAKTKPREEQYNSTYRVVSVLTVLHQDWLNGKEYKCKVSNKALPAPIEKTISKAKGQPREPQVCTLPPSRDELTKNQVSLWCLVKGFYPSDIAVEWESNGQPENNYKTTPPVLDSDGSFFLYSKLTVDKSRWQQGNVFSCSVMHEALHNRYTQKSLSLSP
# light: DIVMTQSPLSLPVTPGEPASISCRSSQSLVHSNRNTYLHWYQQKPGQAPRLLIYKVSNRFSGVPDRFSGSGSGTDFTLKISRVEAEDVGVYYCGQGTQVPYTFGQGTKLEIKRTVAAPSVFIFPPSDEQLKSGTASVVCLLNNFYPREAKVQWKVDNALQSGNSQESVTEQDSKDSTYSLSSTLTLSKADYEKHKVYACEVTHQGLSSPVTKSFNRGEC
# notes: one-arm antibody
# B5: CE115HA000 Y59A one-arm antibody (antibody, human IgG1, kappa, L234A L235A, N297A, name in Kabat numbering)
# heavy: QVQLVESGGGVVQPGRSLRLSCAASGFTFSNAWMHWVRQAPGKGLEWVAQIKAKSNNYATYAAESVKGRFTISRDDSKNSLYLQMNSLKTEDTAVYYCRYVHYGAYYGVDAWGQGTTVTVSSASTKGPSVFPLAPSSKSTSGGTAALGCLVKDYFPEPVTVSWNSGALTSGVHTFPAVLQSSGLYSLSSVVTVPSSSLGTQTYICNVNHKPSNTKVDKKVEPKSCDKTHTCPPCPAPEAAGGPSVFLFPPKPKDTLMISRTPEVTCVVVDVSHEDPEVKFNWYVDGVEVHNAKTKPREEQYASTYRVVSVLTVLHQDWLNGKEYKCKVSNKALPAPIEKTISKAKGQPREPQVYTLPPSRCELTKNQVSLSCAVKGFYPSDIAVEWESNGQPENNYKTTPPVLDSDGSFFLVSKLTVDKSRWQQGNVFSCSVMHEALHNHYTQKSLSLSPDYKDDDDK
# chain: EPKSSDKTHTCPPCPAPELLGGPSVFLFPPKPKDTLMISRTPEVTCVVVDVSHEDPEVKFNWYVDGVEVHNAKTKPREEQYNSTYRVVSVLTVLHQDWLNGKEYKCKVSNKALPAPIEKTISKAKGQPREPQVCTLPPSRDELTKNQVSLWCLVKGFYPSDIAVEWESNGQPENNYKTTPPVLDSDGSFFLYSKLTVDKSRWQQGNVFSCSVMHEALHNRYTQKSLSLSP
# light: DIVMTQSPLSLPVTPGEPASISCRSSQSLVHSNRNTYLHWYQQKPGQAPRLLIYKVSNRFSGVPDRFSGSGSGTDFTLKISRVEAEDVGVYYCGQGTQVPYTFGQGTKLEIKRTVAAPSVFIFPPSDEQLKSGTASVVCLLNNFYPREAKVQWKVDNALQSGNSQESVTEQDSKDSTYSLSSTLTLSKADYEKHKVYACEVTHQGLSSPVTKSFNRGEC
# notes: one-arm antibody
# B6: CE115HA000 Y59D one-arm antibody (antibody, human IgG1, kappa, L234A L235A, N297A, name in Kabat numbering)
# heavy: QVQLVESGGGVVQPGRSLRLSCAASGFTFSNAWMHWVRQAPGKGLEWVAQIKAKSNNYATYDAESVKGRFTISRDDSKNSLYLQMNSLKTEDTAVYYCRYVHYGAYYGVDAWGQGTTVTVSSASTKGPSVFPLAPSSKSTSGGTAALGCLVKDYFPEPVTVSWNSGALTSGVHTFPAVLQSSGLYSLSSVVTVPSSSLGTQTYICNVNHKPSNTKVDKKVEPKSCDKTHTCPPCPAPEAAGGPSVFLFPPKPKDTLMISRTPEVTCVVVDVSHEDPEVKFNWYVDGVEVHNAKTKPREEQYASTYRVVSVLTVLHQDWLNGKEYKCKVSNKALPAPIEKTISKAKGQPREPQVYTLPPSRCELTKNQVSLSCAVKGFYPSDIAVEWESNGQPENNYKTTPPVLDSDGSFFLVSKLTVDKSRWQQGNVFSCSVMHEALHNHYTQKSLSLSPDYKDDDDK
# chain: EPKSSDKTHTCPPCPAPELLGGPSVFLFPPKPKDTLMISRTPEVTCVVVDVSHEDPEVKFNWYVDGVEVHNAKTKPREEQYNSTYRVVSVLTVLHQDWLNGKEYKCKVSNKALPAPIEKTISKAKGQPREPQVCTLPPSRDELTKNQVSLWCLVKGFYPSDIAVEWESNGQPENNYKTTPPVLDSDGSFFLYSKLTVDKSRWQQGNVFSCSVMHEALHNRYTQKSLSLSP
# light: DIVMTQSPLSLPVTPGEPASISCRSSQSLVHSNRNTYLHWYQQKPGQAPRLLIYKVSNRFSGVPDRFSGSGSGTDFTLKISRVEAEDVGVYYCGQGTQVPYTFGQGTKLEIKRTVAAPSVFIFPPSDEQLKSGTASVVCLLNNFYPREAKVQWKVDNALQSGNSQESVTEQDSKDSTYSLSSTLTLSKADYEKHKVYACEVTHQGLSSPVTKSFNRGEC
# notes: one-arm antibody
# Columns and labels:
# [1] = target: T1, CD3 epsilon homodimer protein (UniProt P07766 23-126); assay: SPR Biacore T200, antibody over immobilised CD3e homodimer;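 also: CD3 epsilon homodimer amine-coupled on a CM4 chip, run at 25 °C in HBS-EP+, Z = bound amount of each single-residue H chain variant over that of the parent antibody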
# T1 construct: also called CD3 (CD3 epsilon)
# T1 sequence (P07766 23-126): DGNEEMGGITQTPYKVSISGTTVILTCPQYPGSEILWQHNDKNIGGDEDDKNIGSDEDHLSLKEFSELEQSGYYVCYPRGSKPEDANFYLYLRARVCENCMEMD
# [2] = target: T2, CD3 epsilon homodimer protein (UniProt P07766 23-126); assay: SPR Biacore T200, CD3 epsilon homodimer on CM4 chip, antibody as analyte;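 also: Amine-coupled CD3 epsilon homodimer, run at 25 °C in HBS-EP+ buffer, ratio is bound amount of each single-residue H chain variant over that of the parent antibody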
# T2 construct: Immobilized on Sensor chip CM4 by amine coupling; construct not described; also called CD3 (CD3 epsilon)
# T2 sequence (P07766 23-126): as above
Binder,ratio of amounts bound (Z=Y/X vs CE115HA000) [1],ratio of amounts bound (Y/X vs CE115HA000) [2]
B1,0.11,–
B2,–,1.26
B3,0.66,–
B4,0.3,–
B5,0.85,–
B6,0.7,–
